# According to the nanobody polyreactivity screen of Harvey et al. (2022):
# Test: yeast display, Sf9 membrane polyspecificity reagent, FACS + sequencing; frameworks hold sequencing errors
# Method in brief: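 Sorting gates, low and high (top ~1%), were placed on anti-HA fluorescence to track expression and on streptavidin fluorescence to track reagent binding. A clone's polyreactivity label is taken from the gate it came out of. The reagent was 10% biotinylated, detergent-solubilized Sf9 membrane, applied for 1 hour at 4 °C to galactose-induced yeast display cells.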
row,Sequence,polyreactivity (PSR sort gate)
1,QVQLVESGGGLVQAGGSLRLSCAASGRTFKPYAMGWYRPAPGKDRELVAAISTRGGSTYFADSVKGRFTISRDNAKNTVYLQMNSLKPEDTAVYYCAATQPVRDYDYWGQGTQVTVSS,low polyreactivity
2,QVQLVESGGGLVQAGGSLRLSCAASGFTFRYNAMGWYRQAPGKERELVAAITNGGSTYADSVKGRFTISRDNAKNTVYLQMNSLKPEDTAVYYCAADYFVLTYYLWCYSPYKSFYYWGQGTQVTVSS,low polyreactivity
3,QVQLVESGGGLVQAGGSLRLSCAASGFTFGRYAMGWYRQAPGKVRELVAAINWSGGSTYYADSVKGRFTISRDNAKNTVYLQMNSLKPEDPAVYYCNKGVSRSSVRGDYWGQGTQVTVSS,high polyreactivity
4,QVQVVQSGGGLVQAGGSLRLSCAASGSIFVPNSMGWYRPPPGKERELVAAISLSGGSTYYADSVKGRFTISRDYARNTVYLQMTSLKPEDSAVYYCAADIFYYSSSYGYWGLGTQVTVSS,low polyreactivity
5,QVQLVESGGGLVQAGCSLRLICAASGSTFDPNAMGWYRQSPGKERQLVAVIDSGDGTTYYADSVKGRFTISRDNAKNTVYLQMNSLKPEDTAVYYCAVDESTSYYDDHEDYWGQGTQVTVSS,low polyreactivity
6,QVQLVESGGGLVQAGGSLRLSCAASGSIFSGYAMGWYRQAPGKERELVAAISRRGTSTYYADSVKGRFTISRDNAKNTVYLQMNSLKPEDTAVYYCAATYGGRQSYGGFDYWGQGTQVTVSS,high polyreactivity
7,QVQLVESGGGLVQAGGSLRLSCAASGGIFAVNVMGWYRQAPGKERELVAAITSTGSTYYADSVKGRFTISRDNAKNTVYLQMNSLKPEDTAVYYCASDYVYYDSYDDTVFGYEYWGQGTQVTVSS,high polyreactivity
8,QVQLVESGGGLVQAGGSLRLSCAASGRTFRAYAMGWYRQAPGKERELVAGITSGGSTNYADSVKGRFTISRDNAKNTVYLQMNSLKPEDTAVYYCAAKTHSRTKVYTADYWGQGTQVTVSS,high polyreactivity
9,QVQLVESGGGLVQAGGSLRLSCAASGRIFYYNAMGWYRQAPGKERELVAAISYRGASTYYADSVKGRFTISRDNAKNTVYLQMNSLKPEDTAVYYCAAVTISKGFYPYDYWGQGTQVTVSS,high polyreactivity
10,QVQLVESGGGLVQAGGSLRLSCAASGSIFQYYVMGWYRQAQGKERELVAAISRGGGSTYYADSLKGRFTISRDNAKNTVYLQMNSMKPEDTAVYYCAKRTTRLAPYDYWGQGTQVTVSS,high polyreactivity
11,QVQLVESGGGLVQAGGSLRLSCAASGLIFYGYAMGWYRQAPGKERELVAAISSGGSTNYADSVKGRFTISRDNAKNTVYLQMNSLKPEDTAVYYCAAKPIFYRTILYYYWGQGTQVTVSS,high polyreactivity
12,QVQLVESGGGLVQAGGSLRLSCAASGSTFGGYAMGWYRQAPGKERELVAAITYSGGSTYYADSVKGRFTISRDNAKNTVYLQMNSLKPEVTAVYYCNADDDDALPWWWPYVLDVDYWGQGTQVTVSS,low polyreactivity
13,QVQLVESGGGLVQAGGSLRLSCAASGITFTQYAMGWYRQAPGKERELVASITSSGDNTYYADSVKGRFTISRDNAKNTVYLQMNSLKPEDTAVYYCNARYKWSRRKPWGYWGQGTQVTVSS,high polyreactivity
14,QVQLVESGGGLVQAGGSLRLSCAASGFIFVKYAMGWYRQAPGKERELVAAISWSGGTTYYADSVKGRFTISRDNANNTVYLQMNSLKPEDTAVYYCAAEYYTGYFKYDYWGQGTQVTVSS,high polyreactivity
15,QVQLLESGGGLVQAGGSLRLSCAASGSTFDDNAMGWYRQAPGKERELVAGISDGDDSTNYADSVKGRFTISRDNAKNTVYLQMNRLKPEDTAVYYCNARYVRTYGVRFGYDYWGQGTQVTVSS,low polyreactivity
16,QVQLVESGGGLVQAGGSLRLSCAASGSIFYQNAMGWSRQAPGKEWELVAAISWSGGSTYYADSVKGRFTISRDNAKNTDFLQMNSLKPEDTAVYYCNKYVRFRGGAYVTGYDYWGQGTQVTVSS,high polyreactivity
17,QVQLVESGGGVVQAGGSLRLSCASSGRTFSRYTMGWYRQAPGKERELVAVITASGTSTYYADSVKGRFTISRDNAKYTVYLQMISQKPEDTAVYYCAAYYPTYYRYSSLTMNYWGQGTQVTVSS,high polyreactivity
18,QVQLVESGGGLVQAGGSLRLTCAASGGTFQVNAMGWYRQAPGKEMELVAAINRSGGGTTYADSVKGRFTISRDNAKNTVYLQMNSLKPEDTAVYYCAVDFYTYYYVEYGYWGQGTEVTVSS,high polyreactivity
19,QVQLVESGGGLVQAGGSLRLSCAASGLTINPNAMGWYRPAPGKERELVAAIDWSGGSTYCADSVKGRFTISRDNAKNTVYLQMNSLKPEDTAVYYSAADPPDRLFLYDYWGQGTQVTVSS,low polyreactivity
20,QVQLVESGGGSVQAGGSLRLSCAASGSIFAQYTMGWYRQAPGKERELVAVISINGVSTYYADSVKGRFTISRDNAKNTVYLQMNSLKPEDTAVYYCNAGISPYEALGYWGQGTQVTVSS,low polyreactivity
21,QVQLVESGGGLVQAGGSIRLSCAASGSIFVDNARGWYRPAPGKERELVAAIRSRDTSTYYADSVKGRFTISRDNAKHTVYLQMNSLKPEDTAVYYCAARTSKRVSQYNYWGQGTQVTVSS,high polyreactivity
22,QVQRVESGGGLVQAGRSLRLSCAASGTIFGPYAMGWYRQAPGKERELVAAITIGRDNTYYADSVKGRFTISRDNAKNTVYLQINSLKPEDTAVYYCAAKYYGGKPHYYEYYYWGQGTQVTVSS,low polyreactivity

row,Sequence,polyreactivity (PSR sort gate)
1,RVQLQESGGGLVQAGGSLRLSCAASGTIFIRGDMGWYRQAPGKEREFVATIDTGSNTYYADSEKGRFTISRDNAKNAVSLQMICLKPGDTAVYYCVVDYQLSGRLRYWGQGTQVTLSS,low polyreactivity
2,QVQLVESGGGLVQAGGSLRLSCAASGRIFGGNAMGWSRQAPGKERELVAAISWSGGSTYADSVKGRFTISRDNAKNTVYLQMNSLKPEDTAVYYCATRLVKYYYYDYRTYGRRYDYWGQGTQVTVSS,high polyreactivity
3,QVQLVESGGGLVPAGGSLRLSCAASGSTFTQNARGWYRQAPGKERELVAAISWSGARTYYADSVKGRFTISPDNANNTVYLQMNSLKPEDTAVYYCNNYARKRGTTNDYWGQGTQVTVSS,high polyreactivity
4,QVQLQESGGGLVQAGDSQRLSCAASGNSFRFTHMGWYRQAPGKERELVAASNAGSTTYYADSVKGRFTISRDNAKNTVYLQMKSLKPEDTAVYYCAVYYLGSGTFGYWGQGAQVTVSS,high polyreactivity
5,QVQLVESAGGLVQAGGSLRLSCAASGSTFANYAMGWYRQAPGKERELVAGISWRGGRTYYADSVKGRFTISRDNAKNTVYLQMNSLKPEDTAVYYSAVVHQTFTGDYWGQGTQVTVSS,high polyreactivity
6,QVQLVESAGGLVQAGGSLRLSCAASGYIFSYNAMGGYRQAPGKERELVAAITASGGGTYYADSVKGRFTISRDNAKNTVYLHMNSLKQEDTAVYYCAADLSWSRVVFGDYDYWGQGTQVTVSS,low polyreactivity
7,QVQRVESGGVLVQAGGSLRLSCAASGITFYVYAMGWYRQAPGKERELVASITRSVGITSYADSVKGRFTISRDNSKNTVYLQMNSLKQEDSAVYYCAAERSNLHYNIQGVGYWGQGTQVTVSS,low polyreactivity
8,QVQLVESGGGLVQAGGSLRLISAASGRIFDLYTMGWYRQAPGKERELVAAIRWSHGSTYYADSVKGRFTISRDNAKNTVYLQMNSLKPEDTAVYYCAADTRTSYYNDDYDYWGQGTQVTVSS,low polyreactivity
9,QVQLVESGGGLVQAGGSLRLSCAASGRIFHYYAMGWYRQAPGKERELVAAINSAGSTKYADSVKGRFTISRDNAKNTVYLQMNSLKPEDTAVYYCAAERGSRDGGYDYWGQGTQVTVSS,low polyreactivity
10,QVQLVESGGGLVQAGGSLRLSCAASGFIFYPNPMGWYRQAPGKERELVAAITSGGSTYADSVKGRFTISRDNAKNTVYLQMNSLKPEDTAVYYCAAVDTSIITFWYIASDGFDYWGQGTQVTVSS,low polyreactivity
11,QVQLVESGGGLVQAGGSLRLSCAASGRIFVFNAMGWYRQAPGKERELVAAISRRGGSTYYADSVKGRFTISRDNAKNTVYLQMNSLKPEVTAVYYCAAVYPDYSSARYDYWGQGTQVTVSS,high polyreactivity
12,QEQLLESGGGLVQAGGSLRLSCAASGYISSHIMSWYRQAPGKEREFVDTITDGGTTNYADSVKGRFTISRDNAKNTVYLQMNSLKPEDTAVYYCAAVATYSYHFGYWGHGTQVTVSS,high polyreactivity
13,QVQLVESGGGLVQAGGSLRLSCAASGRIFSRYAMGWYRQAPGKERELVAIISSGDSTNYADSVKGRFTISRDNAKNTVYLQMNSLKPEDTAVYYCAAANWGTPPYDDWGQGTQVTVSS,low polyreactivity
14,QVQLVESGGGLVQAGGSLRLRGAASGSIFSSNAKGWCRPAPGKERELVAAICRSGGDTYYADSVKGRFTISRDNAKNTVYLQMNSLKPVDTAVYYCAARNSYGGPTYEHYYWGQGTQVSVSS,high polyreactivity
15,QVQLVESGGGLVQAGGSLRLSCAASGRIFHRNAMGWYRPAPGKERELVATIRGNGGSTYYADSVKGRFTISRDNAKNTVYLQMNSLKPEDTAVYYCARDAQGYGGWWTYSRFYSWGQGTQVTVSS,high polyreactivity
16,QDQLVESGGGLVQAGGSLRLSCAASGFNFSPNAMGWYRQAPGKERELVAAIDWSGDRTYYADSVKGRFTISRDNAKNTVYLEMNSLKPEDTSVYYCNVVRRSTGEYSFYYWGQGTQVTVSS,low polyreactivity
17,QVQLVESGVGLVQAVGSLRLSCAASGSTFYYYAMGWYRQAPGKERELVAAISWSGAYTFYSDSVKGRFTISRDNAKNTVYLQMNSLKPEDTAVYYCAARYYGQPQYQPLYYWGQGTQVTVSS,high polyreactivity
18,QVQLVESGGGLVQAGGSLRLSCAASGSTFDTYAMGWYRQAPGKERELVAVITTGGSTYYADSVKGRFTISRDNAKNTVNLQMNSLKPEDTAVYYCNAGYSVSRRRKYGYWGQGTQVTVSS,high polyreactivity
19,KVQLVESGGGLVQAGGSLRLSCAASGFIFYRNTMGWYRQAPGKEREFVAAIRWRGGSTYYADSVKGRFTISRDNAKNTVYLQMNSLKPEDTAVYYCAADTRPGYSGFEYWGQGTQVTVSS,high polyreactivity
20,QVQLVESGGGLVQAGGSLRLSCAASGRIFQYYVMGWYRQAPGKERELVAAITSGGGTKYADSVKGRFTISRDNAKNTVYLQMNSLKPEDTAVYYCAAAWFDQYSRYDYWGQGTQVTVSS,low polyreactivity
21,QVQLVESGGGLVQAGGSLRLTCAASGLTFGGNAMGWYRQAHRKERELVAAISWSDDTTDYADSVKGRFTISRDNAKNSVYLQMNSLNPEDTAIYYCAARLPFEHVDYWGQGTQVTVSS,low polyreactivity
